Values joined by “and” are separate entries in the source; they are usually repeats but may differ in a detail not shown here. Equal values may be shown once.
Tests used:
[1] = biological target: PsaA receptor on Detroit 562 human nasopharyngeal epithelial cells (human); test: coated fluospheres at 1:50 dilution on Detroit 562 cells
[2] = biological target: PsaA receptor on Detroit 562 human nasopharyngeal epithelial cells (human); test: competition of PsaA-coated bead adherence to Detroit 562 cells by P4 in solution (second of the three doses, printed 100 µg)
[3] = biological target: PsaA receptor on Detroit 562 human nasopharyngeal epithelial cells (human); test: competitor P4 in solution against P4-coated beads on Detroit 562 cells
[4] = biological target: PsaA receptor on Detroit 562 human nasopharyngeal epithelial cells (human); test: homologous competitor P4 in solution against P4-coated fluospheres on Detroit 562 cells
[5] = biological target: PsaA receptor on Detroit 562 human nasopharyngeal epithelial cells (human); test: competition of PsaA-coated bead adherence to Detroit 562 cells by P4 in solution
[6] = biological target: PsaA receptor on Detroit 562 human nasopharyngeal epithelial cells (human); test: coated fluorospheres on Detroit 562 cells, 1640±210 beads/well
[7] = biological target: PsaA receptor on Detroit 562 human nasopharyngeal epithelial cells (human); test: 2,600 fluospheres/well on Detroit 562 cells, day 1 after labeling
[8] = biological target: PsaA receptor on Detroit 562 human nasopharyngeal epithelial cells (human); test: time course on Detroit 562 cells, n=6, 140 min
[9] = biological target: PsaA receptor on Detroit 562 human nasopharyngeal epithelial cells (human); test: cold chase with non-fluorescent PsaA-coated spheres against PsaA-coated fluospheres on Detroit 562 cells
[10] = biological target: PsaA receptor on Detroit 562 human nasopharyngeal epithelial cells (human); test: adherence of unsaturated rPsaA fluospheres to Detroit 562 cells with P3 peptide added
[11] = biological target: PsaA receptor on Detroit 562 human nasopharyngeal epithelial cells (human); test: time course on Detroit 562 cells, n=6, 180 min
[12] = biological target: PsaA receptor on Detroit 562 human nasopharyngeal epithelial cells (human); test: 2,600 fluospheres/well on Detroit 562 cells, day 60 after labeling
[13] = biological target: PsaA receptor on Detroit 562 human nasopharyngeal epithelial cells (human); test: time course on Detroit 562 cells, n=6, 20 min

For “P4 peptide (PsaA amino acid residues 251 to 278 with DD changed to KR)”, the adherence signal (FU) [1] was greater than 100000 FU, the % reduction in FU [2] was 68% and the percent reduction in adherence [3] was 89.4% and 87.6% and 88.9%. For the same substance, the percent reduction in adherence [4] was 89.4% and 87.6% and 88.9%, the % reduction in FU [5] was 23% and the adherence (mean FU) [6] was 19300 FU.

“recombinant pneumococcal surface adhesin A (rPsaA) of Streptococcus pneumoniae (from UniProt P0A4G2 20-309) (ligand)” showed a mean adherence (FU) [7] of 30100 FU, a mean adherence signal (FU) [8] of 16600 FU and a % inhibition of adherence of PsaA-coated fluospheres [9] of less than 31%. For the same substance, the adherence signal (FU) [1] was greater than 100000 FU, the fold enhancement of binding by P3 peptide [10] was less than 2.5 fold and the mean adherence signal (FU) [11] was 17500 FU. It also gave a mean adherence (FU) [12] of 30600 FU and a mean adherence signal (FU) [13] of 2320 FU.

Reference: US20080305123A1
